The text below walks through data of US20220062372A1, “METHODS FOR TREATING DISEASE AND REDUCING DRUG-INDUCED LIVER INJURY IN PATIENT POPULATIONS” (Ten Peaks LLC, priority 2020, published 2022).

The target in series [1] is T1, HLA-B*39:01 and β2-microglobulin (Homo sapiens, UniProt P01889, A182T/A93T/A95T/C349S/D138N/D201E/E176V/E187T/E204Q/K202T/Q94N/R155S/R180L/S121R/Y140F/Y91C).
T1 construct: made in house; host or cells: E. coli
The series is described as follows: Refolding of HLA complexes with synthetic peptides, G200 superdex chromatography (OD280). It is filed as binding. To be noted: for binding to HLA-B*39:01 (results of the studies taken together): overall conclusion of Example 2, Tables 6 and 7 and FIGS. 2-4; for peptide binding and proper refolding of HLA-B*39:01 (peak in chromatogram): FIG. 2A-2D, FIG. 3. The method, then: (§1) Refolding, characterization and purification of HLA complexes was performed as described (PMID: 12220628). Briefly, HLA-B*39:01 and β2-microglobulin were expressed in E. coli. Inclusion bodies were isolated, denatured in 8 M Urea and mixed with synthetic peptides derived from infliximab (Genscript) at a final concentration of 0.2 mg per ml protein, 6 M Urea, 20 mM Tris pH 8.0, 1 mM GSH, 10 mM GSSH for 24 hours, then dialyzed against 10 mM Tris pH 8.0 for 3 days. Samples concentrated to reduce the volume 10 fold, then loaded on a G200 superdex column calibrated with standards (http://www.bio-rad.com/webroot/web/pdf/1sr/literature/MSLIT-102E.pdf) in 10 mM Tris, 150 mM NaCl, at 0.75 ml per minute. OD280 was recorded for chromatographic analysis.
(§2) Results of the study are provided in FIGS. 2-4 and in Tables 6 and 7. In Tables 6 and 7, the IC50 (nM) for each peptide binding to HLA-B*39:01, HLA-B*05:01, HLA-B*35:01, or HLA-B*57:01 are shown in nM. […] In each of FIG. 2A-2D, the dotted line arrow points to the peak (or lack of a peak, for FIG. 2D) indicating peptide binding and proper refolding. […] The dotted line arrow points to the peak (or lack of a peak) indicating peptide binding and proper refolding. […] FIGS. 5A and 5B show an exemplary crystal structure of infliximab.

Series [2] relates to other HLAs. Nature of the series: Peptide binding to other HLAs (overall conclusion of Example 2). More on the design: species or system human. On the procedure: A study was conducted to identify interactions between peptides present on the infliximab antibody and HLA-B*39:01. Peptides corresponding to heavy and light chain sequences of infliximab (chain H and L in PDB code 4G3Y) were predicted to bind class I HLA molecules based on the Stabilized matrix method (SMM) implemented in Immune Epitope Database and Analysis Resource (IEDB). Peptides predicted to bind with estimated Kd values less than 0.5 μM were considered candidate binders for: HLA-B*39:01, HLA-B*15:01, HLA-B*35:01, and HLA-B*57:01.
as §1, §2

The conditions of series [3]: background description of the marketed drug; cited from earlier work.
Series [4] can be described thus: HLA analysis of infliximab-DILI cases vs. matched controls and reference populations. It is filed as in vivo, human. The conditions noted are these: for OR vs. Ref 2 / OR vs. Ref 1 / OR vs. Control / OR: DILI after infliximab; for OR vs. Control: 25 Caucasian cases vs 60 controls; for OR: cases vs controls. On the procedure:
Samples from 25 Caucasians, 3 Africans, and 3 outliers subjects that had been treated with infliximab and had experienced DILI were obtained. These are referred to as “cases” here. These samples were compared to a set of 60 matched Caucasian and 6 matched African controls. […] The controls were matched for age, sex, ethnicity, and BMI where possible. Statistical analyses were performed to identify from these cases HLA alleles that are risk factors for the development of DILI following infliximab exposure. Significant alleles were determined using Fisher's Exact Test (FET) (p<0.05).
As a secondary comparison, the HLA profiles of the 25 Caucasian cases were compared to reference populations available at www.allelefrequencies.net. For calculating population presence rates, reference list entries were found by searching for “Caucasoid” ethnic origin subjects of gold-standard studies involving ≥100 subjects for alleles of interest on allelefrequencies.net. Sample sizes for the references represent the reported number of subjects directly typed for a given locus (i.e. USA NMDP European Caucasian reports 1,242,890 subjects typed for HLA-B and DRB1, but only 395,676 subjects typed for HLA-C; see Table 3).
In order to test for significant differences between the 31 Infliximab-DILI cases and the reference populations using Fisher's Exact Test (FET), counts of individuals carrying at least one copy of the allele in question were calculated one of two ways. If the population presence rate was available, the number of individuals was estimated by rounding the product of the population presence rate and the sample size for that HLA locus in that study. If no population presence rate was available, this number was estimated using the allele frequency rate and assuming Hardy-Weinberg equilibrium (HWE). That is, if the allele frequency is p, the number of individuals with the allele in question were calculated as [p^2+2*p*(1−p)]*Nsamples, where p^2+2*p*(1−p) represents the percentage of carriers if HWE is assumed, and N samples is the reference sample size for that locus.
The data sets individually analyzed were: Caucasian typed and/or Caucasian imputed; African typed and/or African imputed; and All Ethnicities typed and/or All Ethnicities imputed. “Typed only” means that only subjects with directly typed HLA alleles were considered in the indicated analysis. “Imputed only” means that only the imputed alleles (i.e., the subject's HLA profile was determined using known proxies for HLA subtypes in their genetic sequence) for each subject were used in the indicated analysis. “Imputed+Typed” means that all subjects were considered; here, directly typed HLA alleles were used if available, otherwise, imputed alleles were used.

Where no end group is shown, it is not given here.

On to CQQSHSWPF [SEQ ID NO: 9, CQQSHSWPF], for which the “binding to HLA-B*39:01 (results of the studies taken together)” value in series [1] is on record as “bind to HLA-B*39:01 at significant levels”. For the same substance, in series [2], the “binding to other HLAs (results of the studies taken together)” value (from here on “binding to other HLAs”) was “not to other HLAs”.

For the substance golimumab: TNF blocker, the “hepatic adverse reactions reported in patients” value in series [3] was “reports of severe hepatic reactions including acute liver failure”.

“STSGGTAAL [SEQ ID NO: 11, infliximab heavy chain peptide]”: the “binding to HLA-B*39:01 (results of the studies taken together)” value in series [1] was “bind to HLA-B*39:01 at significant levels”. Besides, in series [2], the “binding to other HLAs” value is “not to other HLAs”.

Take “ENTYVIO: integrin receptor antagonist for ulcerative colitis or Crohn's disease”: the “hepatic adverse reactions reported in patients” value in series [3] is “reports of elevations of transaminase and/or bilirubin”.

As for THQGLSSPV [SEQ ID NO: 1, THQGLSSPV], in series [1], the “peptide binding and proper refolding of HLA-B*39:01 (peak in chromatogram)” value (“peptide binding and proper refolding” below) is listed as “binding”; the “binding to HLA-B*39:01 (results of the studies taken together)” value is “bind to HLA-B*39:01 at significant levels”. The “binding to other HLAs” value in series [2] is listed as “not to other HLAs”.

For YSLSSTLTL [SEQ ID NO: 5, YSLSSTLTL], in series [1], the “binding to HLA-B*39:01 (results of the studies taken together)” value was “bind to HLA-B*39:01 at significant levels”. The “binding to other HLAs” value in series [2] is “not to other HLAs”.

Regarding “STYSLSSTL [SEQ ID NO: 7, infliximab light chain peptide]”, the “binding to HLA-B*39:01 (results of the studies taken together)” value in series [1] was “bind to HLA-B*39:01 at significant levels”. Also, the “binding to other HLAs” value in series [2] is on record as “not to other HLAs”.

Regarding “TYSABRI: integrin receptor antagonist indicated for multiple sclerosis and Crohn's disease”, the “hepatic adverse reactions reported in patients” value in series [3] is recorded as “Significant liver injury, including liver failure requiring transplant, has occurred in patients”.

In the case of ACEVTHQGL [SEQ ID NO: 12], in series [1], the “peptide binding and proper refolding” value is recorded as “lack of binding”; the “binding to HLA-B*39:01 (results of the studies taken together)” value is on record as “does not bind”.

Turning to LQSSGLYSL [SEQ ID NO: 10, LQSSGLYSL], the “binding to HLA-B*39:01 (results of the studies taken together)” value in series [1] is “bind to HLA-B*39:01 at significant levels”. Besides, the “binding to other HLAs” value in series [2] is on record as “not to other HLAs”.

Turning to “ZINBRYTA: CD25 (IL-2 receptor)-specific antibody used to treat multiple sclerosis”, the “hepatic adverse reactions reported in patients” value in series [3] was “can cause severe liver injury, including autoimmune hepatitis and liver failure”.

Consider VQWKVDNAL [SEQ ID NO: 8, VQWKVDNAL], for which the “binding to HLA-B*39:01 (results of the studies taken together)” value in series [1] is on record as “bind to HLA-B*39:01 at significant levels”. In addition, the “binding to other HLAs” value in series [2] is “not to other HLAs”.

Consider “Infliximab: mouse-human chimeric monoclonal antibody that binds to human tumor necrosis factor (TNF)”, for which the “OR vs. Ref 2” value in series [4] (B*39:01, 25 Caucasian cases vs England Northwest) came to 13.72; in series [4] (C*12:03, 25 Caucasian cases vs UK Pop 3), 4.56; in series [4] (DQA1*3:03, 25 Caucasian cases vs Netherlands pop 2), 0.87; in series [4] (DQB1*02:01, 25 Caucasian cases vs USA Philadelphia Caucasian), 3.57; in series [4] (DRB1*03:01, 25 Caucasian cases vs USA Philadelphia Caucasian), 3.57. Also, the “OR vs. Ref 1” value in series [4] (B*39:01, 25 Caucasian cases vs USA NMDP European Caucasian) is on record as 8.33; in series [4] (C*12:03, 25 Caucasian cases vs USA NMDP European Caucasian), 3.02; in series [4] (DQA1*3:03, 25 Caucasian cases vs USA Caucasian Bethesda), 0.92; in series [4] (DQB1*02:01, 25 Caucasian cases vs USA San Antonio Caucasian) it was 2.54; in series [4] (DRB1*03:01, 25 Caucasian cases vs USA NMDP European Caucasian), 2.25. For the same substance, the “OR vs. Control” value came out at 18.82 in series [4] (DQA1*3:03), 4.93 in series [4] (DQB1*02:01) and 4.24 in series [4] (DRB1*03:01). Moreover, the OR in series [4] (HLA-A*02:01, African imputed + typed) is recorded as 91.00; in series [4] (HLA-B*39:01, Caucasian imputed + typed), 25.33; in series [4] (HLA-C*07:01, All ethnicities imputed + typed), 2.77; in series [4] (HLA-C*12:03, Caucasian imputed + typed) it was 5.85; in series [4] (HLA-DPB1*04:02, African imputed + typed), 25.67; in series [4] (HLA-DQA1*03:01, All ethnicities imputed + typed) it was 0.28. The OR in series [4] (HLA-DQA1*03:03, All ethnicities imputed + typed) is listed as 16.33; in series [4] (HLA-DQB1*02:01, All ethnicities imputed + typed), 5.21; in series [4] (HLA-DRB*03:01, All ethnicities imputed + typed), 4.50. Also, the “risk of DILI following infliximab administration in subjects with HLA-B*39:01” value in series [4] (in words) is reported as “associated with a higher risk of DILI”. Moreover, the “hepatic adverse reactions reported in patients” value in series [3] was “known to cause hepatotoxicity, and even severe hepatic reactions that can be fatal or necessitate a liver transplant”.

Take “ACTEMRA: interleukin-6 (IL-6) receptor antagonist”: the “hepatic adverse reactions reported in patients” value in series [3] is “Serious cases of hepatic injury have been observed”.

With “Certolizumab: anti-TNF antibody used for the treatment of autoimmune diseases”, in series [3], the “hepatic adverse reactions reported in patients” value is “Elevated liver enzymes and hepatitis have been reported”.

Take “GAZYVA: CD20-directed cytolytic antibody”: the “hepatic adverse reactions reported in patients” value in series [3] is recorded as “Hepatic enzyme elevations have occurred in CLL patients”.

Take Guselkumab: IL-23 blocker: the “hepatic adverse reactions reported in patients” value in series [3] is reported as “Elevated liver enzymes have been reported”.

Consider TQSPAILSV [SEQ ID NO: 6, TQSPAILSV], for which the “binding to HLA-B*39:01 (results of the studies taken together)” value in series [1] was “bind to HLA-B*39:01 at significant levels”. In addition, the “binding to other HLAs” value in series [2] is given as “not to other HLAs”.

Take TKGPSVFPL [SEQ ID NO: 2, TKGPSVFPL]: in series [1], the “peptide binding and proper refolding” value is listed as “binding”; the “binding to HLA-B*39:01 (results of the studies taken together)” value is “bind to HLA-B*39:01 at significant levels”. Further, in series [2], the “binding to other HLAs” value is “not to other HLAs”.
